The text below walks through data of patent US11523990B2, “Non-covalent, self-organzing hydrogel matrix for biotechnological applications” (DENOVOMATRIX GMBH, priority 2012, dated 2022).

Type in all cases: physicochemical
Series [1] in a line: Hydrogel formation of peptide-starPEG conjugates with 14-kDa-heparin. The note with it: peptide coupled to 10-kDa starPEG; 5 mM 14-kDa-heparin + 5 mM (2.5 mM) conjugate, 50 μl 1×PBS pH 7.4. The procedure:
Following is the description of the production of the hydrogel networks. Hereby 14-kDa-heparin (25 mM, 2.5 mM) and peptide-starPEG conjugates (6.25 mM, 3.125 mM) were dissolved in physiologic phosphate buffer solution (1×PBS) water or cell culture medium with 2% fetal bovine serum (FBS). These solutions were dissolved in a ratio of 1:4 heparin:peptide-starPEG-conjugate by obtaining […] or 5 mM 14-kDa-heparin and 2.5 mM or 5 mM peptide-starPEG. The ligand/mol ratio was 2:1, 1:1 and 1:5 relative to the mol ratio of 14-kDa-heparin and the peptide-starPEG-conjugate. The mixtures were incubated within a time frame of one hour to overnight at […]. The gelation time spanned from present up to several hours depending on the applied peptide motif.
(§1) ATIII is a heparin-binding peptide known from the literature. All peptides are connected to a four-armed, maleimide functionalized 10-kDa-polyethylene glycol (starPEG). The hydrogel formation was tested in a 50 μI mixture, which contains 5 mM 14-kDa-heparin and 5 mM (2.5 mM) peptide-starPEG conjugate in phosphate buffer solution (1×PBS, pH 7.4). The deformation and penetration speed was analyzed through centrifuging the hydrogel in a 45° table centrifuge with 275 μm metal beads added to the surface. The deformation of the surface and the penetration of the metal beads were monitored in dependence on the applied force.
In addition to the peptide motif, a tryptophan was labeled with a one letter code W, for UV detection and purification and a cysteine, marked with the one letter code C, bound to the N-terminal end of the peptide with two glycine. By applying the Michael-addition-chemistry, the cysteine was coupled to the maleimide-functionalized 10-kDa-starPEG. […] This is the largest library of peptide-polymer-conjugates, for which each of the oligosaccharide dependent hydrogel formation was analyzed. To analyze the formation of hydrogels, all peptide-starPEG-conjugates were each mixed with 14-kDa-heparin in 50 μI phosphate buffer (1×PBS) to a final concentration of 5 mM. […]

Series [2] can be described thus: Hydrogel formation in different solvents. The note with it: 5 mM conjugate + 5 mM 14-kDa-heparin. The procedure:
Three respective different cases were tested in the hydrogel-formation stability test. […] The hydrogels were formed by mixing the final concentrations of respectively 5 mM peptide-starPEG-conjugate and 5 mM 14-kDa-heparin in 50 μl physiological phosphate buffer solution (1×PBS), Milli-Q-water or cell culture medium with 2% fetal bovine serum (FBS). The stability of the hydrogels was tested with the same solvent in which it was formed in 200 μl supernatant. The hydrogels were incubated at room temperature (24° C.), the supernatants were changed every day for at least three days in a row and the result after at least 3 days analyzed.

Series [3] in a line: High-throughput centrifuge analysis of mechanical properties of the hydrogels (surface deformation, metal bead penetration). The note with it: 5 mM peptide-starPEG + 5 mM 14-kDa-heparin. How it is done:
as §1
A comparative high-throughput analysis was performed regarding the mechanical properties of the hydrogels. In order to provide a fast high-throughput method for comparing small amounts of hydrogel, a tabletop centrifuge (5424R, Eppendorf, Hamburg, Germany) was used. For this purpose, 50 μl of the hydrogel were formed by mixing the peptide-starPEG-conjugates and 14-kDa-heparin in phosphate buffer (1×PBS, pH 7.4) to a final concentration of 5 mM (once 2.5 mM for KA7-starPEG). The mixture was incubated in 0.2 ml reaction vessels overnight. The deformation of the hydrogel surface was determined in reference to the 45° centrifuge rotor and the penetration of 275 μm metal beads in dependence on the force that has to be produced by the centrifuge. All experiments were repeated three times.
Hereby FIGS. 5A and B show a deformation of the surface of the 50 μl hydrogel in a 0.2 ml reaction tube, more specifically FIG. 5A below the speed required for deforming the surface, and FIG. 5B at the speed required for deforming the surface. FIG. 5C is a schematic representation of the penetration of a small spheres through 50 μl hydrogel in a 0.2 ml reaction tube depending on the force exerted by the 45° centrifuge.
The hydrogels were formed by mixing peptide-starPEG-conjugate and 14-kDa-heparin at 5 mM final concentration in 50 μl phosphate buffer (1×PBS). The analysis was performed by centrifuging the hydrogels in a 45° tabletop centrifuge with 275 μm metal beads on the gel surface. The deformation of the surface and the penetration of the spheres were recorded in dependence on the exerted force.

Series [4] is described as follows: Erosion experiment with TAMRA-marked 14-kDa-heparin. The note with it: 5 mM conjugate + 5 mM TAMRA-heparin, cell culture medium with 2% FBS, 37° C. How it is done:
Further, an erosion experiment was conducted. For this purpose peptide-starPEG-conjugates were respectively mixed with TAMRA-marked 14-kDa-heparin. For the erosion experiment the TAMRA-marked 14-kDa-heparin had to be synthesized beforehand. Hereby 14-kDa-heparin was marked with 5-(and-6)-carboxytetramethylrhodamin (TAMRA, Invitrogen) by using the 1-ethyl-3-(3-dimethylaminopropyl)carbodiimide/N-hydroxysulfosuccinimide-(EDAC/sNHS)-chemistry. Heparin, TAMRA, EDAC, sNHS and Na2CO3 were mixed at a ratio of 1:2:5:4:20 in water and incubated overnight. Thereafter the mixture was dialyzed for two days against 10 liters of water in a dialysis membrane with an exclusion limit of 8 kDa with constant exchange of water. The dialyzed product was filtered through a 0.22 μm polyvinylidene fluoride filter (PVDF-filter) and freeze-dried to a red product.
Subsequently the peptide-starPEG-conjugates were respectively mixed with the TAMRA-labelled 14-kDa-heaprin in 50 μl cell culture medium to a final concentration of 5 mM. […] The fluorescence was measured at defined time points in the supernatant by using a plate reading device (BECKMAN COULTER […] Detection platform, BECKAMN COULTER, Brea, Calif., USA) and black 96-well-plates with clear bottom.
Both peptides shoed without heparin a random coiled structure in Milli-Q-water. […] The fluorescence was measured in 200 μl of 1 ml supernatant. […]

Series [5] is described as follows: Stability of formed hydrogels against different solvents. As to conditions: 24° C., at least three days. How it is done:
In order to test the strength of the interaction between the peptide motif and the 14-kDa-heparin the formed hydrogels were tested with regard to different solvents. […] For this the peptide-starPEG-conjugates were mixed with 14 kDa-heparin in 50 μl in physiological phosphate buffer solution (1×PBS) to a final concentration of respectively 5 mM. Each solvent, i.e., physiological phosphate buffer solution (1×PBS), Milli-0-water, 1 M hydrochloric acid (HCl) 1 M sodium hydroxide solution (NaOH), saturated sodium chloride solution (NaCl), dimethyl sulfoxide (DMSO), ethanol and cell culture medium with 2% fetal bovine serum (FBS) were respectively added as 200 μl supernatant to the hydrogel. The hydrogel was incubated at a room temperature of 24° C. and the supernatants where exchanged every day for at least three days. All experiments were performed three times. Under none of the tested conditions the KA7-hydrogel could be destroyed. […] 2,2,2-trifuourethanlol (TFE) is known to destroy any type of secondary structures.

“Also recorded” adds a separate entry of the source. Square brackets hold non-standard residues; d marks the D form. Ends that are not written are not given here.

On to “CWGGKaKaKaKaKaKaKa (CWGGK[dA]K[dA]K[dA]K[dA]K[dA]K[dA]K[dA]) [KdA7]”, for which the “Hydrogel formation with heparin” value in series [1] is on record as “neither formation of a hydrogel”.

In the case of CWGGKAKAKAKAKA [KA5], the “Hydrogel formation in solvent” value is recorded as “formed” in series [2] (Cell culture medium with 2% FBS); “formed” in series [2] (PBS, 50 μl, result after at least 3 days); “Formed” in series [2] (water (Milli-Q)). In addition, the Deformation speed in series [3] (50 μl 1×PBS, 45° centrifuge) is on record as 11223 +/- 4768 m/s^2. The Penetration speed in series [3] (275 μm metal beads) is 21209 +/- 2188 m/s^2. For the same substance, the “Heparin released from the hydrogel (erosion)” value in series [4] was “more erosion”. Moreover, the “Stability of hydrogel against supernatant” value was “only destroyed by 1 M HCl after more than one week incubation; also recorded: Stable; hydrogel was” in series [5] (supernatant 1M HCl); “Stable” in series [5] (supernatant 1M NaOH); “Stable” in series [5] (supernatant 1xPBS, 5 mM conjugate + 5 mM heparin gel); “Stable” in series [5] (supernatant Cell culture medium with 2% FBS); “Stable” in series [5] (supernatant DMSO); “Stable” in series [5] (supernatant Ethanol). Also, the “Stability of hydrogel against supernatant” value in series [5] (supernatant Saturated NaCl solution) and in series [5] (supernatant Water) was “Stable” in each case.

Consider “CWGGKAKAKAKaKAKAKA (CWGGKAKAKAK[dA]KAKAKA) [KA7-1a]”, for which, in series [1], the “Hydrogel formation with heparin” value is reported as “doesn't form a hydrogel with heparin”.
